In PMC6650801:

Target: EGFR–eGFP fusion protein (epidermal growth factor receptor fused to the F64L, S65T mutant of GFP) (UniProt P00533)

half recovery time T1/2 of EGFR–eGFP fluorescence in stripe FRAP on F1-10 cells, before and 2.5 min after 50 nM EGF: 6.4 s
Substance: murine EGF (epidermal growth factor) (from UniProt P01132 977-1029) (ligand)
